Test results: PMC2854372 (The Journal of Cell Biology, 2010)

Key:
[1] = target: T1, Kar1 peptide (budding yeast)
T1 peptide: KKRELIESKWHRLLFHDKK

[2] = target: T2, Bbp1-TAP (budding yeast, UniProt Q12365 1-385); assay: pull-down
T2 sequence (looked up): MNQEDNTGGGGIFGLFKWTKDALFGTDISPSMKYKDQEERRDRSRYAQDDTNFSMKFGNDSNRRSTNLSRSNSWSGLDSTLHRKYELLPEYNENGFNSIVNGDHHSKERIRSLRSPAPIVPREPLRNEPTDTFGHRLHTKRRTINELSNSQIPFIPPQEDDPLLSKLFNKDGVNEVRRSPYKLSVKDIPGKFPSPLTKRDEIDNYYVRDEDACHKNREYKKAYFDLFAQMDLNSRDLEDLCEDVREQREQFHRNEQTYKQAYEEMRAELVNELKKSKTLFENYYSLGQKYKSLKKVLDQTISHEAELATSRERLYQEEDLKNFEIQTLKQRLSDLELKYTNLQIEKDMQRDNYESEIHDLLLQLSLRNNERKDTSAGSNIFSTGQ

B1: Cdc31-T110D (natural protein, budding yeast, UniProt P06704 1-161, looked up)
chain: MSKNRSSLQSGPLNSELLEEQKQEIYEAFSLFDMNNDGFLDYHELKVAMKALGFELPKREILDLIDEYDSEGRHLMKYDDFYIVMGEKILKRDPLDEIKRAFQLFDDDHDGKISIKNLRRVAKELGETLTDEELRAMIEEFDLDGDGEINENEFIAICTDS
[1]
  fold lower ability to bind than wild-type Cdc31: ~10 fold

B2: GST-Spc29 phosphorylated by 6His-Mps1 (natural protein, budding yeast, UniProt P33419 1-253, looked up)
chain: MDYSNFGNSASKKFQDDTLNRVRKEHEEALKKLREENFSSNTSELGNKKHYRAQERMSSPLHRLSPTGKSDDRKVKSPLDDKLRRQLREGNTRLPPPPFSSYGMPPTNRSNLDRIRRRTSSPVRTDKFASQNVIDDQRLEIKYLERIVYDQGTVIDNLTSRITRLESFILNSISDRGDKNFASLEHSRSFSGFPTNKTYGLQMGGLYENDMPYRRSSDNINKEGAREDRSSQIHIENESTEDILKILSSSFHN
modifications: phosphorylated in vitro by Mps1; sites identified by LC-MS/MS: T18, T159, S187 and T240
[2]
  fold binding against GST-Spc29 treated with kinase-dead mps1KD: 5 fold

B3: GST-Spc29, nonphosphorylated (natural protein, budding yeast, UniProt P33419 1-253, looked up)
chain: MDYSNFGNSASKKFQDDTLNRVRKEHEEALKKLREENFSSNTSELGNKKHYRAQERMSSPLHRLSPTGKSDDRKVKSPLDDKLRRQLREGNTRLPPPPFSSYGMPPTNRSNLDRIRRRTSSPVRTDKFASQNVIDDQRLEIKYLERIVYDQGTVIDNLTSRITRLESFILNSISDRGDKNFASLEHSRSFSGFPTNKTYGLQMGGLYENDMPYRRSSDNINKEGAREDRSSQIHIENESTEDILKILSSSFHN
[2]
  binding result: binds
